For two substances, average fibroblast spread area on Fn9*10 hydrogels (all stiffness and viscoelasticity groups, 3 days) and fibroblast spread area on soft elastic Fn4G hydrogels (3 days) results are on record in patent publication US20240157023A1.

Assay [1] addresses α5β1 integrin on human lung fibroblasts (human) (UniProt P08648). Kind of assay: cell-based or functional assay.
Assay [2] concerns the target αvβ3 integrin on human lung fibroblasts (human) (UniProt P06756). The experiment in a line: cell-based or functional assay.
UniProt P06756, sequence (P06756 31-1048, chain 1 of 2): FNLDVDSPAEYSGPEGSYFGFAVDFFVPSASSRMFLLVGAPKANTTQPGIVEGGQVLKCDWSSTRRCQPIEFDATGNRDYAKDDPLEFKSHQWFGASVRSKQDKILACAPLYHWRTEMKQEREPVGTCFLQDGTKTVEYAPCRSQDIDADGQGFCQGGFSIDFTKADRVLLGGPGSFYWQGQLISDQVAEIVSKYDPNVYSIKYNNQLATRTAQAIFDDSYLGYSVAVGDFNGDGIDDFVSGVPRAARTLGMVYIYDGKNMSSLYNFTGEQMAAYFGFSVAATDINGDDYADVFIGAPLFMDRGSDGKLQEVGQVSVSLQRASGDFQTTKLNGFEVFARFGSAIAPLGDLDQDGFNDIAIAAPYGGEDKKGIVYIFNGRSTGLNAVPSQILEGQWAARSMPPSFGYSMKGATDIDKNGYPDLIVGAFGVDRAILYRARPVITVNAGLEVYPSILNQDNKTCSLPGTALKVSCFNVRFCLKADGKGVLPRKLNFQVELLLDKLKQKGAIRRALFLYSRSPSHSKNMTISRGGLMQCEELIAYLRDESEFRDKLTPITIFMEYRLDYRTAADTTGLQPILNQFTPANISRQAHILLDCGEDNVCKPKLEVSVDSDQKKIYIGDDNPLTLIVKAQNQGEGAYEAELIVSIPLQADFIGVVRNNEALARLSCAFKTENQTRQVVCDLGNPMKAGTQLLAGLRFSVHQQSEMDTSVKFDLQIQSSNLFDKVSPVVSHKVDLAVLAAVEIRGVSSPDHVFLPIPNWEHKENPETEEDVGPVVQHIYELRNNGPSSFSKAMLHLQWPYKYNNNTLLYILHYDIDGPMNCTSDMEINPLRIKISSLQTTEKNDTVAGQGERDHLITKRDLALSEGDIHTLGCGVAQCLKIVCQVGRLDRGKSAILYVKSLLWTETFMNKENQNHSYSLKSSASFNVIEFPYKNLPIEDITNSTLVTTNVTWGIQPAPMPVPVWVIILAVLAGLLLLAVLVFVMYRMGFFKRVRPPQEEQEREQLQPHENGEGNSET
UniProt P06756, sequence (P05106 27-788, chain 2 of 2, further chain): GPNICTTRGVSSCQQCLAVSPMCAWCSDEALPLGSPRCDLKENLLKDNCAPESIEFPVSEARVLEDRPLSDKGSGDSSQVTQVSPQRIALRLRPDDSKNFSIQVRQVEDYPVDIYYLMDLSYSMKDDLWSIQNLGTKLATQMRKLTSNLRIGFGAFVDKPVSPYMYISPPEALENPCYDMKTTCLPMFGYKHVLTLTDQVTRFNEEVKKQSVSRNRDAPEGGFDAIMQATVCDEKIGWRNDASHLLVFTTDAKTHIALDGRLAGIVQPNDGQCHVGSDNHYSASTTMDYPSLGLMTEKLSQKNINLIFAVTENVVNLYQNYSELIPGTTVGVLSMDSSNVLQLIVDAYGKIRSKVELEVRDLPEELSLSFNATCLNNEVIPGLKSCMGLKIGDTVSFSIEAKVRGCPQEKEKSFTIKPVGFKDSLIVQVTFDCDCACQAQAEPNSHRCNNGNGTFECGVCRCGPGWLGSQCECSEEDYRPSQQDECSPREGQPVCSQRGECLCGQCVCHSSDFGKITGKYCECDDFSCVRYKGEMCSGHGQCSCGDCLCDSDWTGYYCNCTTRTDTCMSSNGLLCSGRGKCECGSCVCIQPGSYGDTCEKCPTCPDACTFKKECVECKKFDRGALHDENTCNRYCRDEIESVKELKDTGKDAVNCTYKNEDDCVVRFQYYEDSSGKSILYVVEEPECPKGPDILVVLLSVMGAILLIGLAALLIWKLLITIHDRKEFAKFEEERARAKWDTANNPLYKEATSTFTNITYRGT

UniProt P08648, sequence (P08648 42-1049, chain 1 of 2): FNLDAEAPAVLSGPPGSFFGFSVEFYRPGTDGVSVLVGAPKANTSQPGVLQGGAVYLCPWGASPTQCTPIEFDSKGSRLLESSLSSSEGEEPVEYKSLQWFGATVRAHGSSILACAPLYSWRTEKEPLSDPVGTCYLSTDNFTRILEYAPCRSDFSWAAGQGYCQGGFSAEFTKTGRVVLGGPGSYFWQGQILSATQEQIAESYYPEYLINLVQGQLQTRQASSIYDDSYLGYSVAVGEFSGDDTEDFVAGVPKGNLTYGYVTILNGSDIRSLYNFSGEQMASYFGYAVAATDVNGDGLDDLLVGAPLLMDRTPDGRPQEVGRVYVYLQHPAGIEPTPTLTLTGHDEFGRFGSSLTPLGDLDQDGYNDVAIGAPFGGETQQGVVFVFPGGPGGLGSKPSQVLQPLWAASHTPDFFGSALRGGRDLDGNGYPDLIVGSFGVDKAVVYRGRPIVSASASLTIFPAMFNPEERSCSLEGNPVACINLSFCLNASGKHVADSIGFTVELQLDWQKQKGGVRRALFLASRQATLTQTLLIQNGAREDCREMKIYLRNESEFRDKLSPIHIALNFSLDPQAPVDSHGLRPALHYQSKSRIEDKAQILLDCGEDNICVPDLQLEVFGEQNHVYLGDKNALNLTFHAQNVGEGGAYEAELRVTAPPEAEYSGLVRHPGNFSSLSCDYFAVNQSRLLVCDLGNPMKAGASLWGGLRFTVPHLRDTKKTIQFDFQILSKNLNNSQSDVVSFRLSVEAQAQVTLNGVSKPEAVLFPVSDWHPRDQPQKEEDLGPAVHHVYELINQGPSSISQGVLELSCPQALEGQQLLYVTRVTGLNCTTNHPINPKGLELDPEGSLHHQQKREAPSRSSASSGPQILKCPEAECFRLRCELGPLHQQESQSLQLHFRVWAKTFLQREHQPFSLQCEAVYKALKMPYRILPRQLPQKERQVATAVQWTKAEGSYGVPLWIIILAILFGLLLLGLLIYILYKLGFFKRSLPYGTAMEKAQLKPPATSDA
UniProt P08648, sequence (P05556 21-798, chain 2 of 2, further chain): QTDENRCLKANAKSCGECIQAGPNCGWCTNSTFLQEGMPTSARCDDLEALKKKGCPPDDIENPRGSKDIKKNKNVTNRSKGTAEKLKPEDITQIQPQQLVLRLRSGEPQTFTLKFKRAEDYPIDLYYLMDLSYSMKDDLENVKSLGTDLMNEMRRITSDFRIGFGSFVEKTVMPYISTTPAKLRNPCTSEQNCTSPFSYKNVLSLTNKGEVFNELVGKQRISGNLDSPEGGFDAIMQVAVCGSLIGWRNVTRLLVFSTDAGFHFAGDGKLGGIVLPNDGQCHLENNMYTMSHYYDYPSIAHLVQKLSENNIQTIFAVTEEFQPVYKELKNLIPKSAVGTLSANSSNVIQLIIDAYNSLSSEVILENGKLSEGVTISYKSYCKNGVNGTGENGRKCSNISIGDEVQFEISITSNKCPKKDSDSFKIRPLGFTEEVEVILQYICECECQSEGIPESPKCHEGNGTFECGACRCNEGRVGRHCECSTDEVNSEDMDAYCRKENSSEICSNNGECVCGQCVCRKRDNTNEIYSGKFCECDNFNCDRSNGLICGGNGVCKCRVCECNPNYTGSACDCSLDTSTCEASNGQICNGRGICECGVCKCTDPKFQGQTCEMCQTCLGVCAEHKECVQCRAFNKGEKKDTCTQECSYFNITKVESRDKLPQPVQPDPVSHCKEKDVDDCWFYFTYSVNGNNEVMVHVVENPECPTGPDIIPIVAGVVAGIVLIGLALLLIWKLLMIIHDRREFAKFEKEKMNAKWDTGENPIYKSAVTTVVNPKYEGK

In turn, “Fn9*10 (recombinant fibronectin fragment of FnIII9 and FnIII10 with a leucine to proline point mutation at position 1408) (ligand)” returned an average fibroblast spread area on Fn9*10 hydrogels (all stiffness and viscoelasticity groups, 3 days) in assay [1] of 780 µm^2.

As to “Fn4G (recombinant fibronectin fragment of FnIII9 and FnIII10 with four glycine residues inserted in the linker region between them) (ligand)”, in assay [2], the fibroblast spread area on soft elastic Fn4G hydrogels (3 days) stood at 2060 µm^2.
